The target in experiment [1] is human Mpl (full length, expressed on BaF3 cells) (human) (UniProt P40238). The experiment can be described thus: cell-based or functional assay.
The target in experiment [2] is T1, human Mpl (full length, expressed on BaF3 cells) (human, UniProt P40238 26-635).
T1 sequence: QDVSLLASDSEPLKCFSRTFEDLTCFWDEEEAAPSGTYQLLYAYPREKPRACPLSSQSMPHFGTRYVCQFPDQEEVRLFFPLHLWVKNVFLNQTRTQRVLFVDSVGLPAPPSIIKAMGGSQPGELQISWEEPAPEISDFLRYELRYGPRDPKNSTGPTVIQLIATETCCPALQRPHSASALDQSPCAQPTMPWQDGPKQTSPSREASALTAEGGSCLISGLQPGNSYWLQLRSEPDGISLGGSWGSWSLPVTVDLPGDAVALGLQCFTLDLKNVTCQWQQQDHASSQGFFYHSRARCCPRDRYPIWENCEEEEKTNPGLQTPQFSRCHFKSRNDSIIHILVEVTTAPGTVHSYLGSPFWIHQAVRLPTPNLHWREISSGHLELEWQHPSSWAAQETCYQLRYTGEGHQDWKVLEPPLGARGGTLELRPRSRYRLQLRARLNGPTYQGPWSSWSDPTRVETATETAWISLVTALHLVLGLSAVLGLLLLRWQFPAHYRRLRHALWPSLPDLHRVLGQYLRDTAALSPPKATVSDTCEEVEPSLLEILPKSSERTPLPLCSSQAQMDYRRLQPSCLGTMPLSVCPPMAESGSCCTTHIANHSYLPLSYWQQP
The experiment can be described thus: cell-based or functional assay.

Some results are limits rather than exact numbers.

From patent publication WO2005107784A1 (dated 2005) come the findings set out here.

In experiment [1], “recombinant human TPO (rhTPO, R&D) (from UniProt P40225 22-353) (ligand)” registered a BaF-human Mpl EC50 (cell proliferation, WST-8) of 0.076 nM.

B1: VB22B sc(Fv)2 (scFv)
scFv: QVQLQQSGPELVKPGASVKISCKASGYAFTNSWMNWVKQRPGKGLEWIGRIYPGDGETIYNGKFRVKATLTADKSSSTAYMDISSLTSEDSAVYFCARGYDDYSFAYWGQGTLVTVSAGGGGSGGGGSGGGGSDIVMTQAAPSIPVTPGESVSISCRSSKSLLHSNGNTYLYWFLQRPGQSPQLLIYRMSNLASGVPDRFSGSGSGTAFTLRISRVEAEDVGVYYCMQHIEYPFTFGSGTKLEIKGGGGSGGGGSGGGGSQVQLQQSGPELVKPGASVKISCKASGYAFTNSWMNWVKQRPGKGLEWIGRIYPGDGETIYNGKFRVKATLTADKSSSTAYMDISSLTSEDSAVYFCARGYDDYSFAYWGQGTLVTVSAGGGGSGGGGSGGGGSDIVMTQAAPSIPVTPGESVSISCRSSKSLLHSNGNTYLYWFLQRPGQSPQLLIYRMSNLASGVPDRFSGSGSGTAFTLRISRVEAEDVGVYYCMQHIEYPFTFGSGTKLEIK
Consider B1, for which the “TPO-like agonist activity, BaF-human Mpl EC50 (cell proliferation, WST-8)” value (from here on “TPO-like agonist activity”) in experiment [2] worked out at 0.027 nM.

B2: VB22B Diabody (scFv)
scFv: QVQLQQSGPELVKPGASVKISCKASGYAFTNSWMNWVKQRPGKGLEWIGRIYPGDGETIYNGKFRVKATLTADKSSSTAYMDISSLTSEDSAVYFCARGYDDYSFAYWGQGTLVTVSAGGGGSDIVMTQAAPSIPVTPGESVSISCRSSKSLLHSNGNTYLYWFLQRPGQSPQLLIYRMSNLASGVPDRFSGSGSGTAFTLRISRVEAEDVGVYYCMQHIEYPFTFGSGTKLEIK
For the molecule B2, the “TPO-like agonist activity” value in experiment [2] came out at 0.061 nM.

B3: anti-human Mpl antibody VB22B IgG (antibody, V domains shown)
VH: QVQLQQSGPELVKPGASVKISCKASGYAFTNSWMNWVKQRPGKGLEWIGRIYPGDGETIYNGKFRVKATLTADKSSSTAYMDISSLTSEDSAVYFCARGYDDYSFAYWGQGTLVTVSA
VL: DIVMTQAAPSIPVTPGESVSISCRSSKSLLHSNGNTYLYWFLQRPGQSPQLLIYRMSNLASGVPDRFSGSGSGTAFTLRISRVEAEDVGVYYCMQHIEYPFTFGSGTKLEIK
Regarding B3, the “TPO-like agonist activity” value in experiment [2] is greater than 30 nM.
